From patent US20100092465A1, “TREATMENT OF GRAFT-VERSUS-HOST DISEASE” (priority 2006, published 2010)
Where “and” joins values, the source holds several entries; their conditions need not be identical. Equal values may be shown once.

Key:
[1] = target: T1, mouse ligand (single-chain IL27) (Mus musculus, UniProt O35228+Q8K3I6); assay: SPR kinetics of soluble receptors with mouse IL27 ligand; settings: binding with mouse ligand; gp130 not included
T1 construct: amino-terminal peptide tag (FLAG in lot A1426F) (N)
T1 sequence (O35228+Q8K3I6 with tags, fused parts or gaps): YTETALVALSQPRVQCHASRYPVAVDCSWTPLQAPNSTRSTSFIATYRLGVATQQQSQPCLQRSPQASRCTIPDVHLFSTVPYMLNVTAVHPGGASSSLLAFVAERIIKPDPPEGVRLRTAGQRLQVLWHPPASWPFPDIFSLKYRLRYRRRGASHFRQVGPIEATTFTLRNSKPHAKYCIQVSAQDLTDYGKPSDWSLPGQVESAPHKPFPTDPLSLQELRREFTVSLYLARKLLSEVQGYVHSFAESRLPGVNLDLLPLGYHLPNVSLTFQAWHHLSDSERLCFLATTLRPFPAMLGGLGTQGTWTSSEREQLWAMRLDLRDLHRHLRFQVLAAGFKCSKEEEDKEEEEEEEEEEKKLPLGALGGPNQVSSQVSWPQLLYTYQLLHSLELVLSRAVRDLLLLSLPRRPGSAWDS
Protocol: Kinetic rate and affinity constant values for the mouse (IL27RAm(mFc1), Example 3) and human (IL27RA-Fc5, Example 4) soluble receptors were obtained by surface plasmon resonance (SPR) using an automated instrument (BIACORE 3000; Biacore International AB, Uppsala, Sweden). The mouse soluble receptor was tested against mouse ligand (lot A1418F), and the human soluble receptor was tested against both mouse (A1426F) and human (A1534F) ligands. For determination of the kinetic rate constants for the receptor-ligand interactions, the gp130 molecule was not included as part of the receptor complex.
The IL27 ligands used in this study were single-chain molecules comprising EBI3 connected by its C-terminus to the N-terminus of IL-27 p28 via a polypeptide linker. Each of the ligands included an amino-terminal peptide tag.
For the mouse IL27RA study, the soluble receptor was captured onto the chip surface by an isotype-specific anti-mouse Fc antibody (obtained from Jackson ImmunoResearch Laboratories, Inc., West Grove, Pa.) covalently immobilized to the chip (BIACORE CM5 chip) using the standard amine coupling protocol specified by the instrument manufacturer. […]
All data were assessed using software provided with the instrument (BIACORE Evaluation software v. 3.2). […]

muIL-27 [2] = target: T2, muIL-27 (Mus musculus, UniProt O35228+Q8K3I6); assay: Phospho-STAT3 neutralization assay, total human PBMCs, muIL-27; assay type: cell-based; settings: ligand muIL-27 at EC90
T2 sequence (O35228 19-228): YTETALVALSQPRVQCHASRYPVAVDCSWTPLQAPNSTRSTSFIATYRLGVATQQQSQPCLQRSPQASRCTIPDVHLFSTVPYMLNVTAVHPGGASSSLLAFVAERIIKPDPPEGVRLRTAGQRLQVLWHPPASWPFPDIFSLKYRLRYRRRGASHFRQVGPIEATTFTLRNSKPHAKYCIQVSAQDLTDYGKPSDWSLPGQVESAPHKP
T2 sequence (Q8K3I6 29-234): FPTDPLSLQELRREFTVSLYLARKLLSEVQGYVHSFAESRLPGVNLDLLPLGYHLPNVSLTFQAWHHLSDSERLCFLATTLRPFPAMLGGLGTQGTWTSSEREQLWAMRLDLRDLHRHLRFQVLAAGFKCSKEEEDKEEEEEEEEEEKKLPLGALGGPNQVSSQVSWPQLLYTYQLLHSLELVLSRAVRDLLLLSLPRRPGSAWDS
Description: (§1) Whole mouse spleens were harvested from C57 B1/6 mice and washed two times with 1×PBS before being plated out at 2×10^5 cells/well in assay media (RPMI 1640 plus 10% fetal bovine serum) in 96-well, round-bottom tissue culture plates. Total human PBMC (peripheral blood mononuclear cells) were thawed from a frozen vial collected from a leukapherisis donation and washed two times with 1×PBS before being plated out at 10^6 cells/well in assay media in 96-well, round-bottom tissue culture plates. […] Following pre-incubation, treatments were added to the plates containing the cells and incubated together at 37° C. for 15 minutes.
(§2) Following incubation, cells were washed with ice-cold wash buffer (BIO-PLEX Cell Lysis Kit, BIO-RAD Laboratories, Hercules, Calif.) and put on ice to stop the reaction according to manufacturer's instructions. […]
(§3) Capture beads (BIO-PLEX Phospho-Stat3 Assay, BIO-RAD Laboratories) were combined with 50 μL of 1:1 diluted lysates and added to a 96-well filter plate according to manufacture's instructions (BIO-PLEX Phosphoprotein Detection Kit, BIO-RAD Laboratories). […] After the final wash, beads were resuspended in 125 μL/well of bead suspension buffer, shaken for 30 seconds, and read on an array reader (BIO-PLEX, BIO-RAD Laboratories) according to the manufacture's instructions. Data were analyzed using analytical softward (BIO-PLEX MANAGER 3.0, BIO-RAD Laboratories). […]

mouse IL-27 = target: T3, mouse IL-27 (Mus musculus, UniProt O35228+Q8K3I6); assay: IL-27 inhibition of IL-2 production neutralized by IL-27RA Fc; assay type: cell-based
T3 sequence (O35228+Q8K3I6 with tags, fused parts or gaps): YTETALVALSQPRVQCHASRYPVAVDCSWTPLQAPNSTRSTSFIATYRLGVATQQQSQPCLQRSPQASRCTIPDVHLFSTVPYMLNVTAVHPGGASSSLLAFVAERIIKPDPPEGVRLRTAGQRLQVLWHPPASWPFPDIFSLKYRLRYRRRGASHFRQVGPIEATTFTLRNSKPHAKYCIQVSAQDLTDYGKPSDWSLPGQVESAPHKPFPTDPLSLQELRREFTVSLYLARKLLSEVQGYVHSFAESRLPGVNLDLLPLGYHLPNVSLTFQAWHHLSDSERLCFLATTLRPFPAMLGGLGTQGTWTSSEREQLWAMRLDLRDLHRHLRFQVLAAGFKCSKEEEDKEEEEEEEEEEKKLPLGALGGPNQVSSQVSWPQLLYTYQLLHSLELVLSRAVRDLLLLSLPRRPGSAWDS
Protocol: For testing of the soluble receptor, single-chain mouse IL-27 (10 ng/ml) was preincubated for 30 minutes at 37 degrees C. with either IL27RAm(mFc1) (10.0 and 5.0 .micro.g/ml), IL27RA-Fc5, mouse Fc1 protein (10.0 and 5.0 .micro.g/ml), human Fc5 protein (10.0 and 5.0 .micro.g/ml), or no recombinant protein in wells of the anti-CD3 coated plates. 4×10^5 CD4^+ CD62L high cells were added to the wells. Duplicate plates were set up for all experimental conditions. The plates were then cultured at 37 degrees for up to 72 hours. Cell supernatants were collected from one set of plates at 48 hours and from the duplicate set of plates at 72 hours. The supernatants were stored frozen at −80° C.

huIL-27 [3] = target: T4, huIL-27 (Homo sapiens, UniProt Q14213+Q8NEV9); assay: Phospho-STAT3 neutralization assay, mouse spleens, huIL-27; assay type: cell-based; settings: Mouse Spleens; ligand huIL-27 at EC90
T4 sequence (Q14213 21-229): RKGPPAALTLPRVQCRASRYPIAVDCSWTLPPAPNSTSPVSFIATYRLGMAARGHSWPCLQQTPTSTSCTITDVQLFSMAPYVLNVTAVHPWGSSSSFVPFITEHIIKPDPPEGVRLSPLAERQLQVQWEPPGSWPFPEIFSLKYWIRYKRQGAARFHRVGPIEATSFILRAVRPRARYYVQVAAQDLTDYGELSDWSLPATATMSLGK
T4 sequence (Q8NEV9 29-243): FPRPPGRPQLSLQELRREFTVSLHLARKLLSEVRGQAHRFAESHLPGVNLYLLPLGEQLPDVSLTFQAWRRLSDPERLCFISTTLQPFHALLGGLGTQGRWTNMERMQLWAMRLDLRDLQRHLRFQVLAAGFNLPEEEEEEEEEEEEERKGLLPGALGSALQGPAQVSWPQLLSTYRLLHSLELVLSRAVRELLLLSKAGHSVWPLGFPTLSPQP
Description: as §1, §2, §3

[4] = Pharmacokinetics of soluble receptors in female C57B1/6 mice; assay type: in vivo, mouse; settings: for clearance from the circulation, comparison in words: mouse Fc1 fusion versus human Fc5 fusion
Protocol: Studies were performed to evaluate the pharmacokinetics of the mouse (IL-27RAm(mFc1)) and human (IL-27RA-Fc5) soluble receptors in female C57B1/6 mice.
Serum was generated from each sample and analyzed by a qualified enzyme-linked immunosorbant assay (ELISA). The resulting mean serum concentration versus time profiles were then subjected to noncompartmental pharmacokinetic analyses. The following pharmacokinetic parameters were calculated: C0 and Cmax (extrapolated concentration at time zero and maximum serum concentration, respectively), Tmax (time to achieve maximum concentration), t1/2 λz (terminal half-life), AUC0-t (area under the concentration versus time curve from time zero to the last measurable time point), AUCINF (area under the concentration versus time curve extrapolated to infinity), Cl or Cl/F (clearance or clearance divided by bioavailable fraction, respectively), VSS or VZ/F (steady state volume of distribution or volume of distribution divided by the bioavailable fraction, respectively), and F (bioavailable fraction).

huIL-27 [5] = target: T4, huIL-27; assay: Phospho-STAT3 neutralization assay, total human PBMCs, huIL-27; assay type: cell-based; settings: Total Human PBMCs; ligand huIL-27 at EC90
Description: as §1, §2, §3

muIL-27 [6] = target: T2, muIL-27; assay: Phospho-STAT3 neutralization assay, mouse spleens, muIL-27; assay type: cell-based; settings: ligand muIL-27 at EC90
Description: as §1, §2, §3

B1: IL-27RAm(mFc1): fusion protein comprising the extracellular domain of mouse IL27RA and a wild type BALB/c mouse gamma2a constant region Fc tag (protein)
chain: TRPHGSPGPLQCYSVGPLGILNCSWEPLGDLETPPVLYHQSQKYHPNRVWEVKVPSKQSWVTIPREQFTMADKLLIWGTQKGRPLWSSVSVNLETQMKPDTPQIFSQVDISEEATLEATVQWAPPVWPPQKVLICQFRYKECQAETWTRLEPQLKTDGLTPVEMQNLEPGTCYQVSGRCQVENGYPWGEWSSPLSFQTPFLDPEDVWVSGTVCETSGKRAALLVWKDPRPCVQVTYTVWFGAGDITTTQEEVPCCKSPVPAWMEWAVVSPGNSTSWVPPTNLSLVCLAPESAPCDVGVSSADGSPGIKVTWKQGTRKPLEYVVDWAQDGDSLDKLNWTRLPPGNLSTLLPGEFKGGVPYRITVTAVYSGGLAAAPSVWGFREELVPLAGPAVWRLPDDPPGTPVVAWGEVPRHQLRGQATHYTFCIQSRGLSTVCRNVSSQTQTATLPNLHLGSFKLWVTVSTVAGQGPPGPNLSLHLPDNRIRWK
ka [1]: 1e+07 M⁻¹ s⁻¹
kd [1]: 0.0012 s⁻¹
IC50 (muIL-27 [2]): 4.83 nM
IL-2 concentration (mouse IL-27; 48 hr, protein conc. 5 (µg/ml; Fc controls in molar equiv.) + IL-27 10 ng/ml): 4021.15 pg/mL
IL-2 concentration (mouse IL-27; 48 hr, protein conc. 10 (µg/ml; Fc controls in molar equiv.) + IL-27 10 ng/ml, listed as mIL-27RA): 5215.59 pg/mL and 4922.26 pg/mL
IL-2 concentration (mouse IL-27; 72 hr, protein conc. 5 (µg/ml; Fc controls in molar equiv.) + IL-27 10 ng/ml): 5744.95 pg/mL
IL-2 concentration (mouse IL-27; 72 hr, protein conc. 10 (µg/ml; Fc controls in molar equiv.) + IL-27 10 ng/ml, listed as mIL-27RA): 6704.62 pg/mL and 12186.7 pg/mL
inhibition (partial block) of the ability of mouse IL-27 to inhibit IL-2 production (mouse IL-27; naïve CD4 T cells): ~50%
IC50 (huIL-27 [3]): 9.3 nM
AUC0-24 ([4]; IP, 100 μg): 98.2 µg·h/mL
AUCINF ([4]; IP, 100 μg): 102 µg·h/mL
Cl/F ([4]; IP, 100 μg): 0.983 mL/h
Tmax ([4]; IP, 100 μg): 1 h
t1/2 λz ([4]; IP, 100 μg): 5.17 h
Cmax ([4]; IP, 100 μg, serum): 13200 ng/mL
AUC0-24 ([4]; IV, 100 μg): 157 µg·h/mL
AUCINF ([4]; IV, 100 μg): 162 µg·h/mL
Cl ([4]; IV, 100 μg): 0.618 mL/h
Vss ([4]; IV, 100 μg): 3.05 mL
t1/2 λz ([4]; IV, 100 μg): 5.25 h
Co ([4]; IV, 100 μg, serum): 36.2 µg/mL
AUC0-24 ([4]; SC, 100 μg): 56.5 µg·h/mL
Tmax ([4]; SC, 100 μg): 3 h
Cmax ([4]; SC, 100 μg, serum): 7950 ng/mL
clearance from the circulation, comparison in words [4]: more rapid clearance
clearance from the circulation, comparison in words ([4]; listed as Zcytor1 fragment polypeptide joined to a wild-type murine immunoglobulin gamma2a): rapidly cleared from the circulation
IC50 (huIL-27 [5]): 1370 nM
IC50 (muIL-27 [6]): 0.18 nM
